These results are taken from the supplement of paper PMC5998384.

Series [1] concerns HeLa Kyoto. Description: solubility in G1/S (NP-40 vs SDS abundance) (log2 ratio); higher = more soluble. Particulars: cell cycle stage: G1/S.
For series [2], the system named is HeLa Kyoto. Description: melting temperature (median over replicates), in situ; higher = more thermally stable.
The test system of series [3] is HeLa Kyoto. The series is described as follows: solubility change mitosis vs G1/S (difference of NP-40 vs SDS log2 ratios) (log2 ratio difference); higher = more soluble in mitosis.
Series [4] relates to HeLa Kyoto. Description: thermal stability score vs G1/S (z-score of summed log2 fold changes over temperatures); higher = more thermally stable than in G1/S.
Where [5] appears, read: cell cycle stage: early G1 (4.5 h after nocodazole release).
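For melting temperature (median over replicates), in situ in this document: HeLa Kyoto cells synchronized by double thymidine or nocodazole block, proteins quantified by TMT10plex mass spectrometry, three independent biological replicates.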
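For solubility change mitosis vs G1/S (difference of NP-40 vs SDS log2 ratios) in this document: synchronized HeLa Kyoto cells (double thymidine block for G1/S, nocodazole release for mitosis), protein amounts in NP-40 versus SDS lysates quantified by mass spectrometry, three biological replicates.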
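For solubility in G1/S (NP-40 vs SDS abundance) in this document: HeLa Kyoto cells arrested at G1/S by double thymidine block, proteins quantified by TMT10plex mass spectrometry in mild NP-40 versus SDS extracts, three biological replicates.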
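For thermal stability score vs G1/S (z-score of summed log2 fold changes over temperatures) in this document: synchronized HeLa Kyoto cells, proteins quantified by TMT10plex mass spectrometry, three biological replicates, mitosis taken 0.5 h after nocodazole release, G1/S directly after double thymidine block.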

As for “MAELDIGQHCQVEHCRQRDFLPFVCDDCSGIFCLEHRSRESHGCPEVTVINERLKTDQHTSYPCSFKDCAERELVAVICPYCEKNFCLRHRHQSDHECEKLEIPKPRMAATQKLVKDIIDSKTGETASKRWKGAKNSETAAKVALMKLKMHADGDKSLPQTERIYFQVFLPKGSKEKSKPMFFCHRWSIGKAIDFAASLARLKNDNNKFTAKKLRLCHITSGEALPLDHTLETWIAKEDCPLYNGGNIILEYLNDEEQFCKNVESYLE [ZFAND1]”, in the series with HeLa Kyoto [1], the “solubility in G1/S (log2)” value was determined as 0.496. The values for the melting temperature in the series on HeLa Kyoto [2] (cell cycle stage: G1/S) and in the series with HeLa Kyoto [2] (cell cycle stage: mitosis) were 50.6 °C and 49.9 °C, respectively. Also, the “solubility change mitosis (log2)” value in the series with HeLa Kyoto [3] was -0.173. Also, the thermal stability score with HeLa Kyoto [4] (setting [5]) is -0.0516; with HeLa Kyoto [4] (cell cycle stage: mitosis), 1.54.

In the case of “MAASMARRLWPLLTRRGFRPRGGCISNDSPRRSFTTEKRNRNLLYEYAREGYSALPQLDIERFCACPEEAAHALELRKGELRSADLPAIISTWQELRQLQEQIRSLEEEKAAVTEAVRALLANQDSGEVQQDPKYQGLRARGREIRKELVHLYPREAQLEEQFYLQALKLPNQTHPDVPVGDESQARVLHMVGDKPVFSFQPRGHLEIGEKLDIIRQKRLSHVSGHRSYYLRGAGALLQHGLVNFTFNKLLRRGFTPMTVPDLLRGAVFEGCGMTPNANPSQIYNIDPARFKDLNLAGTAEVGLAGYFMDHTVAFRDLPVRMVCSSTCYRAETNTGQEPRGLYRVHHFTKVEMFGVTGPGLEQSSQLLEEFLSLQMEILTELGLHFRVLDMPTQELGLPAYRKFDIEAWMPGRGRFGEVTSASNCTDFQSRRLHIMFQTEAGELQFAHTVNATACAVPRLLIALLESNQQKDGSVLVPPALQSYLGTDRITAPTHVPLQYIGPNQPRKPGLPGQPAVS [SARS2]”, in the series with HeLa Kyoto [1], the “solubility in G1/S (log2)” value was found to be 0.265. Besides, the results for the melting temperature in the series on HeLa Kyoto [2] (cell cycle stage: G1/S) and with HeLa Kyoto [2] (cell cycle stage: mitosis) were 51.5 °C and 51.4 °C, respectively. Also, the “solubility change mitosis (log2)” value in the series with HeLa Kyoto [3] is -0.148. For the same sequence, the thermal stability score stood at 2.24 in the series on HeLa Kyoto [4] (setting [5]) and 1.72 with HeLa Kyoto [4] (cell cycle stage: mitosis).

For “MQSNKTFNLEKQNHTPRKHHQHHHQQQHHQQQQQQPPPPPIPANGQQASSQNEGLTIDLKNFRKPGEKTFTQRSRLFVGNLPPDITEEEMRKLFEKYGKAGEVFIHKDKGFGFIRLETRTLAEIAKVELDNMPLRGKQLRVRFACHSASLTVRNLPQYVSNELLEEAFSVFGQVERAVVIVDDRGRPSGKGIVEFSGKPAARKALDRCSEGSFLLTTFPRPVTVEPMDQLDDEEGLPEKLVIKNQQFHKEREQPPRFAQPGSFEYEYAMRWKALIEMEKQQQDQVDRNIKEAREKLEMEMEAARHEHQVMLMRQDLMRRQEELRRMEELHNQEVQKRKQLELRQEEERRRREEEMRRQQEEMMRRQQEGFKGTFPDAREQEIRMGQMAMGGAMGINNRGAMPPAPVPAGTPAPPGPATMMPDGTLGLTPPTTERFGQAATMEGIGAIGGTPPAFNRAAPGAEFAPNKRRRY [NONO]”, the “solubility in G1/S (log2)” value in the series on HeLa Kyoto [1] is -0.113. For the same sequence, the melting temperature in the series on HeLa Kyoto [2] (cell cycle stage: G1/S) was 46.6 °C; with HeLa Kyoto [2] (cell cycle stage: mitosis), 47.8 °C. In the series on HeLa Kyoto [3], the “solubility change mitosis (log2)” value came to 0.501. Moreover, the figures for the thermal stability score in the series with HeLa Kyoto [4] (setting [5]) and in the series on HeLa Kyoto [4] (cell cycle stage: mitosis) were 4.71 and 11.4, respectively.

Consider “MGAQLSTLGHMVLFPVWFLYSLLMKLFQRSTPAITLESPDIKYPLRLIDREIISHDTRRFRFALPSPQHILGLPVGQHIYLSARIDGNLVVRPYTPISSDDDKGFVDLVIKVYFKDTHPKFPAGGKMSQYLESMQIGDTIEFRGPSGLLVYQGKGKFAIRPDKKSNPIIRTVKSVGMIAGGTGITPMLQVIRAIMKDPDDHTVCHLLFANQTEKDILLRPELEELRNKHSARFKLWYTLDRAPEAWDYGQGFVNEEMIRDHLPPPEEEPLVLMCGPPPMIQYACLPNLDHVGHPTERCFVF [CYB5R3]”, for which the “solubility in G1/S (log2)” value in the series on HeLa Kyoto [1] was -0.215. Also, the values for the melting temperature with HeLa Kyoto [2] (cell cycle stage: G1/S) and in the series on HeLa Kyoto [2] (cell cycle stage: mitosis) were 56 °C and 55.8 °C, respectively. Besides, the “solubility change mitosis (log2)” value in the series with HeLa Kyoto [3] was -0.158. For the same sequence, the thermal stability score with HeLa Kyoto [4] (setting [5]) is -1.92; in the series with HeLa Kyoto [4] (cell cycle stage: mitosis), -2.76.

On to “MDTCGVGYVALGEAGPVGNMTVVDSPGQEVLNQLDVKTSSEMTSAEASVEMSLPTPLPGFEDSPDQRRLPPEQESLSRLEQPDLSSEMSKVSKPRASKPGRKRGGRTRKGPKRPQQPNPPSAPLVPGLLDQSNPLSTPMPKKRGRKSKAELLLLKLSKDLDRPESQSPKRPPEDFETPSGERPRRRAAQVALLYLQELAEELSTALPAPVSCPEGPKVSSPTKPKKIRQPAACPGGEEVDGAPRDEDFFLQVEAEDVEESEGPSESSSEPEPVVPRSTPRGSTSGKQKPHCRGMAPNGLPNHIMAPVWKCLHLTKDFREQKHSYWEFAEWIPLAWKWHLLSELEAAPYLPQEEKSPLFSVQREGLPEDGTLYRINRFSSITAHPERWDVSFFTGGPLWALDWCPVPEGAGASQYVALFSSPDMNETHPLSQLHSGPGLLQLWGLGTLQQESCPGNRAHFVYGIACDNGCIWDLKFCPSGAWELPGTPRKAPLLPRLGLLALACSDGKVLLFSLPHPEALLAQQPPDAVKPAIYKVQCVATLQVGSMQATDPSECGQCLSLAWMPTRPHQHLAAGYYNGMVVFWNLPTNSPLQRIRLSDGSLKLYPFQCFLAHDQAVRTLQWCKANSHFLVSAGSDRKIKFWDLRRPYEPINSIKRFLSTELAWLLPYNGVTVAQDNCYASYGLCGIHYIDAGYLGFKAYFTAPRKGTVWSLSGSDWLGTIAAGDISGELIAAILPDMALNPINVKRPVERRFPIYKADLIPYQDSPEGPDHSSASSGVPNPPKARTYTETVNHHYLLFQDTDLGSFHDLLRREPMLRMQEGEGHSQLCLDRLQLEAIHKVRFSPNLDSYGWLVSGGQSGLVRIHFVRGLASPLGHRMQLESRAHFNAMFQPSSPTRRPGFSPTSHRLLPTP [GTF3C2]”, for which the “solubility in G1/S (log2)” value in the series on HeLa Kyoto [1] was -0.18. Besides, the results for the melting temperature in the series on HeLa Kyoto [2] (cell cycle stage: G1/S) and in the series with HeLa Kyoto [2] (cell cycle stage: mitosis) were 46.5 °C and 49.5 °C, respectively. Also, the “solubility change mitosis (log2)” value with HeLa Kyoto [3] was 0.119. Moreover, the thermal stability score amounted to 2.79 in the series with HeLa Kyoto [4] (setting [5]) and 6.24 in the series on HeLa Kyoto [4] (cell cycle stage: mitosis).
